Measured values reported in article PMC6155322.
Values joined by “and” are separate entries in the source; they are usually repeats but may differ in a detail not shown here. Equal values may be shown once.

Tests used:
[1] = molecular target: pyruvate kinase M2 type (PKM2), mouse kidney (mouse (endogenous in kidney)) (UniProt P52480); assay: cross-linking; glutaraldehyde added to clarified kidney lysate (4 mg/mL; sodium phosphate buffer pH 7.3, 0.5% Triton X-100), 37 °C for 10 min, stopped with Tris; 5-20% SDS/PAGE and Western blotting; kidneys of control and diabetic CD-1 and C57Bl6 mice, scramble or sirt3 siRNA injected diabetic mice, DCA treated diabetic mice, KK/Ta-Ins2Akita mice and littermate controls
[2] = molecular target: pyruvate kinase M2 type (PKM2), human HK-2 cells (human (endogenous in HK-2)) (UniProt P14618); assay: cross-linking; glutaraldehyde chemical cross-linking of scramble siRNA, sirt3 siRNA transfected and TGFβ alone treated HK-2 cells; Western blot

pyruvate kinase M2 type (PKM2), mouse kidney, P52480 1-531 (enzyme; other documents disagree on this pair), sequence (P52480 whole entry): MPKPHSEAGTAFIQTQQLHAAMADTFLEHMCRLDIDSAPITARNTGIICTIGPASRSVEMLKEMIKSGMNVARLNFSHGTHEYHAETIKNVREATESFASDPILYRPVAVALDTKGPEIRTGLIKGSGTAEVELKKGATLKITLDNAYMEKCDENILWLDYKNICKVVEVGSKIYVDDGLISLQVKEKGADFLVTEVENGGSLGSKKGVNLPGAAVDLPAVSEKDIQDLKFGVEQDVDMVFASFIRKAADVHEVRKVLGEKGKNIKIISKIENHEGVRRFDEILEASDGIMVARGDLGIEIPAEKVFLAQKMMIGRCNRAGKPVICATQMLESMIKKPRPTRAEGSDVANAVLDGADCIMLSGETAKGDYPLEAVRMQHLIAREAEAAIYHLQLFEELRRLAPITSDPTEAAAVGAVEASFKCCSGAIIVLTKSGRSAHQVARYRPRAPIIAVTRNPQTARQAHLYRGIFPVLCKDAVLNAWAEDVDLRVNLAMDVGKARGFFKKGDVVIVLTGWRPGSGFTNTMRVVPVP
pyruvate kinase M2 type (PKM2), human HK-2 cells, P14618 1-531 (enzyme; other documents disagree on this pair), sequence (P14618 whole entry): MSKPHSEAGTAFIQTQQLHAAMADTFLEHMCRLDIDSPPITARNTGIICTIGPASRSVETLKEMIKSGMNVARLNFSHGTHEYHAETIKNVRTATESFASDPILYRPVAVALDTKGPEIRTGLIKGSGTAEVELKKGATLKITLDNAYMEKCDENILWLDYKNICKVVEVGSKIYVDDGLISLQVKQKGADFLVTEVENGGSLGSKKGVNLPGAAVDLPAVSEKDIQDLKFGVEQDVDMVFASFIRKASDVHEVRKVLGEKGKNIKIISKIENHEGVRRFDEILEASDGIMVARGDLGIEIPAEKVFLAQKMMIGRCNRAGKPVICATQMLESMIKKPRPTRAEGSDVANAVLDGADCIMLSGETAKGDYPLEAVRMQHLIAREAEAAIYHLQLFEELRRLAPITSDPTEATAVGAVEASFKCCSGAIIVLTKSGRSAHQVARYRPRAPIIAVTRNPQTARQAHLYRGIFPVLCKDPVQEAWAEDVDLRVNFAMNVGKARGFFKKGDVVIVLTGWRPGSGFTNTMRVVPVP

## pyruvate kinase M2 type (PKM2), mouse kidney, P52480 1-531 (enzyme; other documents disagree on this pair)
[1]
  stoichiometry N: 2 and 4

## pyruvate kinase M2 type (PKM2), human HK-2 cells, P14618 1-531 (enzyme; other documents disagree on this pair)
[2]
  stoichiometry N: 2
